# Reference: patent publication US20230391867A1 (SHENZHEN ENDURING BIOTECH, published 2023)
# Key:
# [1] = molecular target: T1, CD47 on human cells (red blood cells from healthy human donors; BxPC3; ZR-75-1) (human, UniProt Q08722 19-323); assay: cell-based or functional assay
# [2] = molecular target: T2, Human CD47 Protein, Fc Tag (HPLC verified; Acro, cat:CD7-H5256-100ug) (human, UniProt Q08722 19-139); assay: ELISA, plate coated with human CD47 Fc Tag protein, anti-SCACD3 detection
# T2 construct: Bought Fc-tagged CD47 coated on the ELISA plate; not shown: Fc tag
# [3] = molecular target: T1, CD47 on human cells (red blood cells …); assay: flow cytometry, JY102-Alexa Fluor 488 at 10 ug/ml, % stained BxPC3 cells against % stained RBCs
# Procedure: Again, RBC cells from healthy human donors or cultured BxPC3 cells were collected and resuspended to a concentration of approximately 5×10⁶ cells/ml in ice cold PBS, 3% BSA. 100 μl of cell suspension was used for each binding reaction and incubated with indicated doses of JY102-Alexa Fluor 488 for at least 30 min at room temperature (or 4° C. for the assay in panel C) in the dark. Then cells were washed 3 times by centrifugation at 400 g for 5 min and resuspended in ice cold PBS, 3% BSA. Each sample was subjected to flow cytometry analysis.
# T1 sequence (Q08722 19-323): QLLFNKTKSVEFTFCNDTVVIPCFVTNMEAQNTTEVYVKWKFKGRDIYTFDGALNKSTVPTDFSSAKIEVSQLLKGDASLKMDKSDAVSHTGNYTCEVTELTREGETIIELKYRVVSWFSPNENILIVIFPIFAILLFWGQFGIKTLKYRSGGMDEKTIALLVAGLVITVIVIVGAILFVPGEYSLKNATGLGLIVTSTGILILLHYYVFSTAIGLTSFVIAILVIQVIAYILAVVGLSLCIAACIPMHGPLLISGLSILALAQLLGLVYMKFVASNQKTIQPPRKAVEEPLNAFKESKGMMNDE
# T2 sequence (Q08722 19-139 limits assumed): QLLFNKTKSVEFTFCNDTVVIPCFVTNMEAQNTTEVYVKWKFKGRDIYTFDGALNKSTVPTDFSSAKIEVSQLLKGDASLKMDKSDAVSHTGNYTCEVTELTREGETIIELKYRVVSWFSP
binder,measurement,setting,value
"JY102 (30kmPEG-(SCACD3)SCACD47) (bispecific antibody, free thiol (Cys) in the VL-VH linker is conjugated to Azide-PEG10-Maleimide; the azide is clicked to the DBCO of 30kmPEG-Lys(SCACD3)-DBCO; free thiol (Cys) genetically inserted in the VH-VL linker is conjugated to the maleimide of 30kmPEG-Lys(maleimide)-DBCO, also called Compound 12; compound 12) scFv 1: not shown scFv 2: DIVMTQSPLSLPVTPGEPASISCRSSQSIVYSNGNTYLGWYLQKPGQSPQLLIYKVSNRFSGVPDRFSGSGSGTDFTLKISRVEAEDVGVYYCFQGSHVPYTFGQGTKLEIKGGCSGGSGGSGGSGGQVQLVQSGAEVKKPGASVKVSCKASGYTFTNYNMHWVRQAPGQRLEWMGTIYPGNDDTSYNQKFKDRVTITADTSASTAYMELSSLRSEDTAVYYCARGGYRAMDYWGQGTLVTVSS","EC50 of T cell mediated cytotoxicity (MTS assay, expanded T cells, E:T 5:1, 24 h) to ZR75-1",[1],0.111 µg/mL
same,EC50,[2],0.187 µg/mL
same,fold difference in binding (BxPC3 cells against RBCs),[3],40 fold
